In patent CN116829596A (AUSTIA THERAPEUTICS INC, dated 2023):

Tests used:
[1] = biological target: T1, 人类血浆激肽释放酶 (human plasma kallikrein) (human, UniProt P03952 20-390; P03952 391-638); test: SPR, 37 C
T1 construct: The active enzyme is a cleaved two-chain form; also called pkal; pKal

[2] = biological target: T1, 人类血浆激肽释放酶 (human plasma kallikrein); test: SPR, 37 C, pH 7.4 or pH 6.0
[3] = biological target: T1, 人类血浆激肽释放酶 (human plasma kallikrein); test: SPR, 37 C, pH 7.4
[4] = biological target: T1, 人类血浆激肽释放酶 (human plasma kallikrein); test: SPR, 37 C, pH 6.0

T1 sequence (P03952 20-390 S143N limits assumed, chain 1 of 2): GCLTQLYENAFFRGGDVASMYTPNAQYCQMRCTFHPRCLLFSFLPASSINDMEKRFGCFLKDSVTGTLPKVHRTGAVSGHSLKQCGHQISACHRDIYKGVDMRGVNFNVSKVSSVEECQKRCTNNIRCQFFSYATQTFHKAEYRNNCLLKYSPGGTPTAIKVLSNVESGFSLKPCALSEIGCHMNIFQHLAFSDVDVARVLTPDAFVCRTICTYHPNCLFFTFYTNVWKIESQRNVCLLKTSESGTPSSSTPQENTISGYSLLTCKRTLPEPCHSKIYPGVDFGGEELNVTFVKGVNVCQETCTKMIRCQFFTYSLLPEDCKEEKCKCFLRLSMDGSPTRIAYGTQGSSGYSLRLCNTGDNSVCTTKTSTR
T1 sequence (P03952 391-638 limits assumed, chain 2 of 2): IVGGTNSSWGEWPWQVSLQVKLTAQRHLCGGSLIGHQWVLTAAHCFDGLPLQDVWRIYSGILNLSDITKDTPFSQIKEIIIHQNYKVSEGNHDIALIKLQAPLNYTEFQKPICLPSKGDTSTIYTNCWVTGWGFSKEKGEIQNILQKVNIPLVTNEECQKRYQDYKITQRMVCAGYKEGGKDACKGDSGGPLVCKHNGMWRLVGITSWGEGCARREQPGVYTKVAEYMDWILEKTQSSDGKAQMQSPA

Binder | fold stronger binding affinity than DX-2930 [1] | fold affinity for plasma kallikrein over prekallikrein [2] | Kd [3] | Kd [4]
MAb4-YTE (antibody, human IgG1, kappa, Humanised full-length human IgG1 kappa; also called Mab-YTE) heavy: QVQLVQSGAEVKKPGSSVKVSCKASGYAFSSYWMNWVRQAPGQGLEWIGQIYPGDDDTNYNAKFQGRVTITVDKSTTTAYMELSSLRSEDTAVYFCAGSLMVTTGAPFDYWGQGTTVTVSSASTKGPSVFPLAPSSKSTSGGTAALGCLVKDYFPEPVTVSWNSGALTSGVHTFPAVLQSSGLYSLSSVVTVPSSSLGTQTYICNVNHKPSNTKVDKRVEPKSCDKTHTCPPCPAPELLGGPSVFLFPPKPKDTLYITREPEVTCVVVDVSHEDPEVKFNWYVDGVEVHNAKTKPREEQYNSTYRVVSVLTVLHQDWLNGKEYKCKVSNKALPAPIEKTISKAKGQPREPQVYTLPPSREEMTKNQVSLTCLVKGFYPSDIAVEWESNGQPENNYKTTPPVLDSDGSFFLYSKLTVDKSRWQQGNVFSCSVMHEALHNHYTQKSLSLSPG light: DIQMTQSPSSLSASVGDRVTITCKASQDVGIAVAWYQQKPGKAPKFLIYYASHRGWGVPDRFSGSGSGTDFTLTISSLQPEDFATYFCQQYRSYPLTFGQGTKLEIKRTVAAPSVFIFPPSDEQLKSGTASVVCLLNNFYPREAKVQWKVDNALQSGNSQESVTEQDSKDSTYSLSSTLTLSKADYEKHKVYACEVTHQGLSSPVTKSFNRGEC | > 5 倍 | > 1000 倍 | 1.1 nM | 0.9 nM
MAb4-LS (antibody, human IgG1, kappa, Humanised full-length human IgG1 kappa) heavy: not shown light: DIQMTQSPSSLSASVGDRVTITCKASQDVGIAVAWYQQKPGKAPKFLIYYASHRGWGVPDRFSGSGSGTDFTLTISSLQPEDFATYFCQQYRSYPLTFGQGTKLEIKRTVAAPSVFIFPPSDEQLKSGTASVVCLLNNFYPREAKVQWKVDNALQSGNSQESVTEQDSKDSTYSLSSTLTLSKADYEKHKVYACEVTHQGLSSPVTKSFNRGEC | > 5 倍 | > 1000 倍 | 2.2 nM | 1.2 nM
